# Laboratory results taken from patent publication US20240059759A1.
# Experiments:
# [1] = molecular target: SARS-CoV-2 RBD (SinoBiological, Cat. No. 40592-V02H) (SARS-CoV-2) (UniProt P0DTC2)
# [2] = molecular target: SARS-CoV-2 RBD (SinoBiological, Cat. No. 40592-V02H) (SARS-CoV-2) (UniProt P0DTC2); test: ELISA on RBD
substance,measurement,setting,value
VHH-72 D61S,fold enhanced binding,[1],3 fold
same,EC50,[2],0.17 µg/mL
